This is an account of results in patent US20090196872A1 (KIRIN BEER, published 2009).

The target in one assay is M2DLTGS peptide (influenza A virus). Description: peptide ELISA, avian flu M2 variants.
The next assay has as its target M2LTKGS peptide (influenza A virus). Description: peptide ELISA, avian flu M2 variants.

B1: human anti-M2 monoclonal antibody no. Z3G1 (recombinant IgG1 type Z3, CHO; ATCC PTA-5967) (antibody, V domains shown)
VH: QVQLVQSGAEVKKPGASVKVSCKASGYTFTSYGISWVRQAPGQGLEWMGWISAYNGNTNYAQKLQGRVTMTTDTSTSTAYMELRSLRSDDTAVYYCARAAAGGYFQHWGQGTLVTVSS
VL: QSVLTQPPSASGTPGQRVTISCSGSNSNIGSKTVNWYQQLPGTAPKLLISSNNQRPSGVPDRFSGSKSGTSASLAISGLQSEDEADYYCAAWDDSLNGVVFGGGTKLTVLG
As to B1, the binding result in the assay with M2DLTGS peptide and with M2LTKGS peptide was “binds” throughout.
